Results as given in US20020028202A1 (Biogen, published 2002).
Where a chain is given by its changes, count along the chain named.

Key:
[1] = molecular target: T1, human gc chain mutant, SDN replaced by Ala (Domain 1 Loop CC), myc-tagged, on COS-7 cells (human, UniProt P31785 23-369); experiment: staining of transfected COS-7 cells, FACS
T1 construct: whole, on cells; not shown: 9 amino acid myc tag at the 5' end of the construct
T1 sequence (looked up): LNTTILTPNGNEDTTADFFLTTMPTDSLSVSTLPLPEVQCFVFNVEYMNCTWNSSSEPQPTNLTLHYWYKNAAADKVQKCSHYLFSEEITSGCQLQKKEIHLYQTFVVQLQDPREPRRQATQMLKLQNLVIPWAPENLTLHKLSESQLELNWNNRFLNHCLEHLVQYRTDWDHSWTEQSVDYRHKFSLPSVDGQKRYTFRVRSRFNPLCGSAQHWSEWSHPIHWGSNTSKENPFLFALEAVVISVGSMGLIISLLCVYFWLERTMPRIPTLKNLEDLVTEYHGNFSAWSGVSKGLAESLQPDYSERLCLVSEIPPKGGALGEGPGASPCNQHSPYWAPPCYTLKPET
Procedure: (§1) COS-7 cells are transiently transfected with 20 ug of DNA encoding the gc chain mutant or wildtype cDNA and 180 ug of herring sperm carrier DNA. After 2-3 days, COS-7 cells are harvested and analyzed by immnunofluorescent staining with anti-gc chain mAbs. MAbs are used at 10 ug/ml in PBS-1% BSA-0.02% sodium azide and allowed 30 minutes to bind to 1×10⁶ COS-7 cells. Cells are then washed 2 times, and bound mAb is detected with PE-conjugated goat anti-mouse Fc specific antibodies. The % of positive cells staining with the anti-gc chain mAb over an irrelevant control Ig is determined for a given gc chain mutant and for wildtype gc chain. […] Data are adjusted for any differences in level of expression of a mutant vs. wildtype constructs by measuring the binding of a mAb specific for a 9 amino acid myc tag engineered at the 5′ end of each gc chain construct. […] Values reduced from 100% indicate amino acid mutations which affect mAb binding.
(§2) The value “100%” indicates no effect of mutation and lower percentages indicate greater losses in binding as a result of the sequence change.

[2] = molecular target: T2, human gc chain mutant, SAQ replaced by Ala (Domain 2 Loop FQ), myc-tagged, on COS-7 cells (human, UniProt P31785 23-369); experiment: staining of transfected COS-7 cells, FACS
T2 construct: whole, on cells; not shown: 9 amino acid myc tag at the 5' end of the construct
T2 sequence (looked up): T1 sequence (looked up) with A72S, A73D, A74N, S211A, Q213A
Procedure: as §1, §2

[3] = molecular target: T3, human gc chain mutant, LNH replaced by Ala (Domain 2 Loop BC), myc-tagged, on COS-7 cells (human, UniProt P31785 23-369); experiment: staining of transfected COS-7 cells, FACS
T3 construct: whole, on cells; not shown: 9 amino acid myc tag at the 5' end of the construct
T3 sequence (looked up): T1 sequence (looked up) with A72S, A73D, A74N, L157A, N158A, H159A
Procedure: as §1, §2

[4] = molecular target: T4, human gc chain mutant, LYQ replaced by Ala (Domain 1 Loop EF), myc-tagged, on COS-7 cells (human, UniProt P31785 23-369); experiment: staining of transfected COS-7 cells, FACS
T4 construct: whole, on cells; not shown: 9 amino acid myc tag at the 5' end of the construct
T4 sequence (looked up): T1 sequence (looked up) with A72S, A73D, A74N, L102A, Y103A, Q104A
Procedure: as §1, §2

[5] = molecular target: T5, human gc chain mutant, ESQ replaced by Ala (Domain 2 Loop AB), myc-tagged, on COS-7 cells (human, UniProt P31785 23-369); experiment: staining of transfected COS-7 cells, FACS
T5 construct: whole, on cells; not shown: 9 amino acid myc tag at the 5' end of the construct
T5 sequence (looked up): T1 sequence (looked up) with A72S, A73D, A74N, E145A, S146A, Q147A
Procedure: as §1, §2

[6] = molecular target: T6, human gc chain (common gamma chain of cytokine receptors) on the cell surface (human, UniProt P31785 23-369); experiment: cell-based or functional assay
T6 sequence (looked up): T1 sequence (looked up) with A72S, A73D, A74N

B1: CP.B8 monoclonal antibody (murine anti-human gc chain, hybridoma ATCC HB-12107) (antibody, V domains shown)
VH: LQESGPGLVAPSQSLSITCTVSGFSLTSYGVHWVRQPPGKGLEWLGVIWAGGSTNYNSALMSRLNINRDNSKSQIFLKMNSLQTDDTAIYYCAREGSTVDSMDYWGQGTTVT
VL: DIVMTQSHKFMSTSVGDSITITCKASQDVTTAVAWYQQKPGQSPKLLIYWASTRHTGVPDRFTGSGSGTDYTLTISSVQAEDLALYYCQQHYITPWTFGGGTKLEI
notes: Used unconjugated and biotin-conjugated; also called CP.B8 mAb; mAb CP.B8
In the case of B1, the “% binding to mutant gc chain/wildtype gc chain” value [1] is reported as 68%, the “% binding to mutant gc chain/wildtype gc chain” value [2] is reported as 111% and the “% binding to mutant gc chain/wildtype gc chain” value [3] is reported as 88%. The “% binding to mutant gc chain/wildtype gc chain” value [4] was 13%, the “% binding to mutant gc chain/wildtype gc chain” value [5] was 75% and the “inhibition of IL-2-induced T cell proliferation, 73 pM IL-2, mAb at 100 ug/ml, relative to MOPC21” value [6] was 51%. For the same binder, the “inhibition of IL-2-induced T cell proliferation, 219 pM IL-2, mAb at 100 ug/ml, relative to MOPC21” value [6] was 44%.
